Laboratory results: patent publication US4413056A, “Process for the preparation of penicillins and penicillin derivatives” (Beecham Group Limited, priority 1980, dated 1983)

B1: Protease type XI: Protease type XI Tritirachium album Proteinase K, supplier Sigma (protein, UniProt P06873 106-384, looked up)
Proteinase K: AAQTNAPWGLARISSTSPGTSTYYYDESAGQGSCVYVIDTGIEASHPEFEGRAQMVKTYYYSSRDGNGHGTHCAGTVGSRTYGVAKKTQLFGVKVLDDNGSGQYSTIIAGMDFVASDKNNRNCPKGVVASLSLGGGYSSSVNSAAARLQSSGVMVAVAAGNNNADARNYSPASEPSVCTVGASDRYDRRSSFSNYGSVLDIFGPGTSILSTWIGGSTRSISGTSMATPHVAGLAAYLMTLGKTTAASACRYIADTANKGDLSNIPFGTVNLLAYNNYQA
B2: Protease type VII: Protease type VII B amyloliquefaciens, Nagarase; Subtilisin BPN, supplier Sigma (protein, UniProt P00782 108-382, looked up)
Subtilisin BPN': AQSVPYGVSQIKAPALHSQGYTGSNVKVAVIDSGIDSSHPDLKVAGGASMVPSETNPFQDNNSHGTHVAGTVAALNNSIGVLGVAPSASLYAVKVLGADGSGQYSWIINGIEWAIANNMDVINMSLGGPSGSAALKAAVDKAVASGVVVVAAAGNEGTSGSSSTVGYPGKYPSVIAVGAVDSSNQRASFSSVGPELDVMAPGVSIQSTLPGNKYGAYNGTSMASPHVAGAAALILSKHPNWTNTQVRSSLENTTTKLGDSFYYGKGLINVQAAAQ
B3: Alcalase 1.5 M: Subtilisin A from B licheniformis, supplier Novo (protein, UniProt P00780 106-379, looked up)
Subtilisin Carlsberg: AQTVPYGIPLIKADKVQAQGFKGANVKVAVLDTGIQASHPDLNVVGGASFVAGEAYNTDGNGHGTHVAGTVAALDNTTGVLGVAPSVSLYAVKVLNSSGSGSYSGIVSGIEWATTNGMDVINMSLGGASGSTAMKQAVDNAYAKGVVVVAAAGNSGSSGNTNTIGYPAKYDSVIAVGAVDSNSNRASFSSVGAELEVMAPGAGVYSTYPTNTYATLNGTSMASPHVAGAAALILSKHPNLSASQVRNRLSSTATYLGSSFYYGKGLINVEAAAQ
B4: Protease Bacterial: Protease Bacterial (Subtilisin A) B Sublitisin, supplier CP (protein, UniProt P00780 106-379, looked up)
Subtilisin Carlsberg: B3 Subtilisin Carlsberg
B5: Proteinase D: Proteinase D (Subtilisin A) B licheniformis, supplier ABM (protein, UniProt P00780 106-379, looked up)
Subtilisin Carlsberg: B3 Subtilisin Carlsberg
B6: Alcalase 0.6 L: Subtilisin A from B licheniformis, supplier Novo (protein, UniProt P00780 106-379, looked up)
Subtilisin Carlsberg: B3 Subtilisin Carlsberg
B7: Protease type VIII: Protease type VIII B subtilis, Subtilisin Carlsberg; Subtilopeptidase A, supplier Sigma (protein, UniProt P00780 106-379, looked up)
Subtilisin Carlsberg: B3 Subtilisin Carlsberg
B8: Subtilisin A: Subtilisin A, B licheniformis, supplier Novo; alkaline microbial serine proteinase EC 3.4.21.14 (protein, UniProt P00780 106-379, looked up)
Subtilisin Carlsberg: B3 Subtilisin Carlsberg

Assays:
[1] = De-esterification of the penicillin C3 benzyl ester by a number of enzymes, ester disappearance assayed by HPLC; assay type: biochemical; conditions: enzyme solution 0.2 ml (5 mg/ml) plus ester solution 2 ml, phosphate buffer pH 7.8, 37° C., 16 hours
Procedure: In order to determine the amount of hydrolysis of the benzyl ester of the C3 carboxyl group by a number of enzymes, the ester was subjected, in aqueous reaction mixture, to the action of the particular enzyme using the following procedure and assay procedure.
Ester solution--Ester (50 mg) was added slowly to stirred 0.25 M, pH 7.8 phosphate buffer (1 ml). When the ester was dissolved distilled water (9 ml) was added.
Enzyme solution--Enzyme (5 mg) was dissolved in distilled water (1 ml).
Enzymation--Enzyme solution (0.2 ml) was added to ester solution (2 ml) and the mixture was incubated at 37° C. for 16 hours.
Assay--When the incubation was complete, the reaction mixture was filtered through glass fibre (Whatman GF/A) and assayed for disappearance of the ester by HPLC.
Extent of conversion of ester to acid is determined as follows: [formula]
In table 1 the extent of conversion of ester to acid is shown for a number of samples of the enzyme of the present invention.

[2] = De-esterification of the benzyl ester using subtilisin A at controlled pH, ester and acid assayed by HPLC; assay type: biochemical; conditions: after 4 hours reaction, 37° C., pH 7.5, subtilisin A 28.16 mg
Procedure: Benzyl 6β-[2-(2-carboxy)-2-thien-3'-ylacetamido 6α-methoxy]penicillanate (0.825 g) was dissolved by adding slowly to stirred 0.25 M, pH 7.8 phosphate buffer (8 ml).
Subtilisin A (28.16 mg) was dissolved in distilled water (10 ml).
Ester solution (3 ml) was added to distilled water (7 ml) and heated to 37° C. in a stirred, water jacketed glass vessel (60 ml) and the pH adjusted to 7.5 by the addition of 1 M NaOH. Subtilisin A solution (10 ml) was heated to 37° C. and added to the ester. The mixture was stirred, the temperature maintained at 37° C. and the pH maintained at 7.5 by the addition of 0.1 M sodium hydroxide.
Samples were removed at appropriate intervals and assayed for ester and acid using the two HPLC systems described in Example 1.

Molecule | Conversion (percentage conversion of the ester to 6[2(2-carboxy)-2-thien-3ylacetamid 6methoxy] penicillin) [1] [%] | conversion of ester to acid [2] [%]
B1 | 61.0 | –
B2 | 78.0 | –
B3 | 88.6 | –
B4 | 91.7 | –
B5 | 100.0 | –
B6 | 88.0 | –
B7 | 89.0 | –
B8 | 88.8 | 88
